From the nanobody polyreactivity screen of Harvey et al. (2022)

Experiment: yeast display, Sf9 membrane polyspecificity reagent, FACS + sequencing; frameworks hold sequencing errors
In short: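 After 36–48 hours of galactose induction, yeast (Saccharomyces cerevisiae BJ5465) displaying a synthetic nanobody library were stained at 4 °C for 1 hour with 10% biotinylated, detergent-solubilized Sf9 membrane reagent. Streptavidin microbeads enriched the stained cells before FACS sorting into low and high (top ~1%) gates on anti-HA and streptavidin fluorescence. Each clone's polyreactivity label reflects its gate of origin.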

Sequence | polyreactivity (PSR sort gate)
QVQLQESGGGLVQAGGSLRLSCAASGNIFDADIMGWYRQAPGKERELVASITDGGSTNYADSVKGRFTISRDNAKNSVYLQMNSLLPEDTAVYYCAAIAYPDIPTYFDYDSDYFYWGQGTQVTVSS | high polyreactivity
QVQLQESGGGLVQAGGSLRLSCAASGNIYDADIMGWYRQAPGKERELVTSITDGGSTNYADSVKGRFTISRDNAKNTVYLQMNSLKPEDTAVYYSAAIAYPDIPTSFDYNSDYSYWGQGTQVTVSS | low polyreactivity
QVQLQESGGGLVQAGGSLRLSCAASGPISRRSNMGWYRQSPGKESELVTAITRGTNTNYADSVKGRFTISRDNAKYTEYLQMNSLNPEDTAVYYCADYGVLKPSRGDAVFNRYWGQGTQVTVSS | low polyreactivity
QVQLQESGGGLVQAGGSLRLSCAASGPISRRSTMGWYRQAPGKERELVTAITRGTNTNYADSVKGRFTISRDNAKNTEYLQMYCLKPEDTAVYYCAAYGVLKPSRGDAVFHRYWGQGTQVTVSS | low polyreactivity
QVQLQESGGGLVQAGGSLRLSCAASGSIFHLHIMCWYRQAPGKERESVAAISYGTSTYYADSVKGRFTICRDNAKNTLYLQMNSPKPDDTAVYYCAALFLVSKHHHYWGEGTQVTVSS | low polyreactivity
QVQLQESGGGLVQAGGSLRLSCAASGSIFHLHIMCWYRQAPGKERESVAAISYGTSTYYADSVKGRFTICRDNAKNTVYLKMNSPKPDDTAVYYCAALFLVSKHHHYWGEGTQVTVSS | low polyreactivity
QVQLQESGGGLVQAGGSLRLSCAASGSIFHLHIMCWYSQAPGKERESVAAISYGTSTYFADSVKGRFTICRDNAKNTVYLQMNSPKPYDTAVYYCAALFLVSKHHHYWGEGTQVTVSS | low polyreactivity
QVQLQESGGGLVQAGGSLRLSCAASGSISELRPMGWYRQAPGKERELVAGISTGGSTNYADSVKGRFTISRDNAKNTVYLQMNSLKPEDTAVYYCAAASYGEGTYDYWGQGTQVTVRS | high polyreactivity
QVQLQESGGGLVQAGGSLRLSCAASGSISHYIFMGWYRQAPGKEREFVAGIGYGGTTNYADSVKGRFTISRDNAKNTVYLQMNSLKPEDTAMYYCAAREATEFYLYYWGQGTQVTVRS | low polyreactivity
QVQLQESGGGLVQAGGSLRLSCAASGSISSPQFMGWYRQAPGIERELVATIANGGITYYADGVKGRFTISRDNAKNTVYLQMNSLKPEDTAVYYCNARSQGWYNTFYYWGQGTQVTVSS | low polyreactivity
QVQLQESGGGLVQAGGSLRLSCAASGTIFRFRYMGWHRQAPGKERELVAGINGGTTTYYADSVIGRFTISRDNAIKTVYLQMNSLKPDDTAVYNCAAGASRLTYYDYWGQGTQVTVSS | low polyreactivity
QVQLQESGGGLVQAGGSLRLSCAASGTIFRPATKGWYRQAPGKECEFVASITIGTITNYADSVKGRFTISRDNAKNTVYLQMNSLKPEDTAVYYCAVYGTWEVDLYYWGQGTQVTVSS | high polyreactivity
QVQLQESGGGLVQAGGSLRLSCAASGTISDSGLMGWYRQAPGKERELVAGISSGGITNYADSVKGRFTISRDNAKNSVDLQMNSLKPEDTAVYWGRGTQVTVSS | low polyreactivity
QVQLQESGGGLVQAGGSLRLSCAASGTISPLPAMGWYRQAPGKEPEFVAGIDTGAITNYADSVKGRFTISRDNAKNTVYLQMNSLKPEDTAVYYCAVFPAAYDYYERYYTYWGQGTQVTVIS | low polyreactivity
QVQLQESGGGLVQAGGSLRLSCAASGTISTIEPMGWYRQAPGKERELVACIGAGTITNYADSVKGRFTISRDNDTVYLQMNSLKPEDTAVYYCNADGWYALYEWLAVSGYYWGQGTQVTVSS | low polyreactivity
QVQLQESGGGLVQAGGSLRLSCAASGYISLAQTIGWYRQAPGKEREFVASIALGSSTYYTDSVKGSFTISRDNAKTTVYLQMNSLKPEDTAVYYCAARVGASYAHDYWGQGTQVAVSS | low polyreactivity
QVQLQESGGGLVQAGGSLRLSCAASGYISSWYPMGSYRQAPGKEREFVATIAPGATTYYADSVKGRFTISRDYAKNTVYLQMNSLKPEDTAVYYCAAGPENNDFYSYGGQGTQVTVSS | low polyreactivity
QVQLQESGGGLVQAGGSLRLSCAASGYISSWYPMGWYRQAPGKEREFVATIAPGATPYYADSVKGRFTISRDYAKNTVYLQMNSLKPEDTAVYYCAAGPENNDFYSYWGQGTQVTVSS | low polyreactivity
QVQLQESGGGLVQAGGSLRLSCAASGYISSWYPMGWYRQAPGKEREFVATLAPGATTYYADSVKGRFTISRDYAKNTVYLQMIRLKPEDTAVYYFAAGPENNDFYSFWGQGSQVTVSS | low polyreactivity
QVQLQESGGGLVQAGGSLRLSCAASGYISYCVGMGWYRQAPGKEREFVASIAVGSNTYYADSVKGRFTISRYNAKISVYLQRNSLKPEDTAVYYCSVEDSWTYRFDYWGQGTQVTVSS | high polyreactivity
QVQLQESGGGLVQAGGSLRLSCAASGYISYFVGMGWYRQAPGKEREFVASIADGSNTYYADSVKGRFTISRDNAKNTVYLQRNSLKPEDTAVYYCAVEDSWTYRFDYWGQGTQVTVSS | high polyreactivity
QVQLQESGGGLVQAGGSLRLSCAASGYIYSWYPMGWYLQAPGKEREFVATIAPGATTYYADSVKGRFTISRDYAKNTVYLQMNSLKTEDTAVYYCAAGAENNDFYSYWGHGTQVTVSS | low polyreactivity

Sequence | polyreactivity (PSR sort gate)
QVQLQESGGGLVQAGGSLRLSCAESGTIFGWDRMGRYRQAPGKERELVATIDNRGSTNYADSVKGRFTISRDNAKNTVYPQMNSLKPDDTAVYYCAVVGPTPQYHLYWGQGTQVTVSS | high polyreactivity
QVQLQESGGGLVQAGGSLRLSCAESGYISHAVEMGWYRQAPGKVHELVASISNGGSTNYADSVKGRFTISRDNAKNTVYLQMNSLKSEDTAVYYCAAWTGQVDIHSYWGQGTQVSVSS | low polyreactivity
QVQLQESGGGLVQAGGSLRLSCAQSGTICGWDRMGRYRQAPGKERELVATIDNRGSTNYADSVKGRFTISRDNANNTVYPQKISLKPDDTAVDYCAVVGPTPQYHLYWGQGTQVTVCS | high polyreactivity
QVQLQESGGGLVQAGGSLRLSCSASGYISHADEMGWYRQAPGKEHELVASISNGGSTNYADSVKGRFTISRDNAKNTVYLQMNSLKSEDTAVYYCAAWTGQVDIHYYWGQGTQVTVSS | low polyreactivity
QVQLQESGGGLVQAGGSLRLTCAASGSIYDDTYMGCYRQAPGKERELVATIDSGSTTNYADSVKGRITIRRDNAKNTVYLQMNSLKPEDTAVYFCGAADSHIDYFDYWGQGTQVTVSS | low polyreactivity
QVQLQESGGGLVQAGGSLRPRCAAGGTIFVSVNMGWYRHAPGEEREFVASITQGATTNYADSLIGRFTISRDNAKNTVYLQMNCQNQEDTAVYYCAVHESGGITFTYWGQGTQVTVSS | high polyreactivity
QVQLQESGGGLVQAGGSLRPSCAASGNIFVPFKMGWYRLAPGKERELVASINRGSTTNYADSVKGRFTISRDNAKNTVYLQMISLKPEDTAVYYCAAIAYPDIPTYLDYDSDYFYWDQGTQVTVSS | high polyreactivity
QVQLQESGGGLVQAGGSLRPSCAASGSISDGVPMGWYRQAPGEQRELVATTVLGATTNYADSVKGRFTISRGNAKNTVYLLMNSLKPEETAVYYCAARLRYDKGFSYWGQGTQVTVSS | low polyreactivity
QVQLQESGGGLVQAGGSLRQSCTASGTIYYTSAMGWYRHAPGKDREFVAAIASGSSTNYADSVKGRFTISRDNAKNTVYLKMNSLKPEVTAVYYCAASERVRNIYQYWGQGTQVSVSS | high polyreactivity
QVQLQESGGGLVQAGGSLRQSYAASGYIFPSLAKGWYRQAPGKEREFVAAIGRGSTNNYADSVKGRFTISRDNAKKTAYQQMNSLKPEDTAVYYCAAAASPLTRHLYWGQGTQVTVSS | low polyreactivity
QVQLQESGGGLVQAGGSLRRSCAASGSIFYHWAMGWYRQTPGKERELVASITSGGNTNYADSVKGRFTISRDNAKNTVYLPMDRLKPEDTAVYYCAADGYYGAWDLEYYYWGQGTQVTVSS | low polyreactivity
QVQLQESGGGLVQAGGSMRLSCAASGSISELRPMGWYRKAPGKERELVAGISTGGSTNYADSVKGRFTISRDNAKNTVYLQMNSQKPEDTAVYYCAAASYGEGTYDYWGQGTQVTVRS | high polyreactivity
QVQLQESGGGLVQAGGSMRLSCAASGSISELRPMGWYRQAPGKERELVAGISTGGSTNYADSVKGRFTISRDNAKNTVYLQMNSLKPEDTAVYYCAAASYGEGTYDYWGQGTQVTVRS | high polyreactivity
QVQLQESGGGLVQAGGSMRLSCAASGSISELSPMGWYRQAPGKERELVAGISTGGSTNYADSVKGRFTISRDNAKNTVYLQMNSLKPEDTAVYYCAAASYGEGSYDYWGQGTQVTVRS | high polyreactivity
QVQLQESGGGLVQAGGSMRLSCAASGYFSNYYSLGLYRQAPGKERELVAGIGTGTSTYYADSVKGRFTISRDNAKNTVYQQMNSLKPEDTAVYYCAAPLDTSSRIFDYWGQGTQVTVSS | low polyreactivity
QVQLQESGGGLVQAGGTLRLSCAASGSFSADEDMGWYRQEQGKEREFVAGISVGGNTNYADSVKGRFTISRENAKNTVYLQINSLKPEDTAVYYCAVLQDVYDALDYWAQGTQVTVSS | high polyreactivity
QVQLQESGGGLVQAGRSLRLSCEASGSISILQSMGWYRQAPGKEGELVAGINWGATTYYADSVKVRLTTSRDYAKNTVYLEMNSLKPEETAVYYCAVPTYYTYPLLYWGPGTQVTVSS | low polyreactivity
QVQLQESGGGLVQAGVSLRLSCAASGNINDADIMGCYRQAPGKERELVTSITDGGSTNYADSVKGRFTISRDNAKNTVYLQMNSLKPEDTAVYYCAAIAYPVIPTSFDYNSDYSYWGQGTQVTVSS | low polyreactivity
QVQLQESGGGLVQARGSLRLSCSASGNISVNGFMGWYRQAPGNVRELVASIGIGGTTYYADSVKGRFSISRDNAKNTVYLQMNSLKPEDTSVYYCAASYLYYAYSYWYQGTQVTVSS | low polyreactivity
QVQLQESGGGLVQEGGSLRLRCAASRNISGSSDLGWYHQAPGKEREFVASITSGGTTYYADSVKGRFTISRDNAKNTVYLQMNSLKPEDTAVYYCAVGDPADAEFGYWGQGTQVTVSS | low polyreactivity
QVQLQESGGGLVQEGGSLRLTCAASGNISPPADMGWYRQAPGKERELVASIGTGGTTNYADSVKGRFTISRDNAKNTVYLQMNSLKPDDTAVYYCAAVRYEYNPYDYWGQGTQVSVSS | low polyreactivity
